Six substances from the supplement of paper PMC5998384 can be followed below.

The test system of data set [1] is HeLa Kyoto. Briefly: solubility change mitosis vs G1/S (difference of NP-40 vs SDS log2 ratios) (log2 ratio difference); higher = more soluble in mitosis.
Data set [2] concerns HeLa Kyoto. Briefly: thermal stability score vs G1/S (z-score of summed log2 fold changes over temperatures); higher = more thermally stable than in G1/S.
Data set [3] deals with HeLa Kyoto. Briefly: melting temperature (median over replicates), in situ; higher = more thermally stable.
The subject of data set [4] is HeLa Kyoto. The experiment in a line: solubility in G1/S (NP-40 vs SDS abundance) (log2 ratio); higher = more soluble. As to conditions: cell cycle stage: G1/S.
The mark [5] stands for this setting: cell cycle stage: early G1 (4.5 h after nocodazole release).
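Throughout, for melting temperature (median over replicates), in situ: HeLa Kyoto cells synchronized by double thymidine or nocodazole block, proteins quantified by TMT10plex mass spectrometry, three independent biological replicates.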
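Throughout, for solubility change mitosis vs G1/S (difference of NP-40 vs SDS log2 ratios): synchronized HeLa Kyoto cells (double thymidine block for G1/S, nocodazole release for mitosis), protein amounts in NP-40 versus SDS lysates quantified by mass spectrometry, three biological replicates.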
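Throughout, for solubility in G1/S (NP-40 vs SDS abundance): HeLa Kyoto cells arrested at G1/S by double thymidine block, proteins quantified by TMT10plex mass spectrometry in mild NP-40 versus SDS extracts, three biological replicates.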
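Throughout, for thermal stability score vs G1/S (z-score of summed log2 fold changes over temperatures): synchronized HeLa Kyoto cells, proteins quantified by TMT10plex mass spectrometry, three biological replicates, mitosis taken 0.5 h after nocodazole release, G1/S directly after double thymidine block.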

Chain of MSI2 (chain, as listed by the source): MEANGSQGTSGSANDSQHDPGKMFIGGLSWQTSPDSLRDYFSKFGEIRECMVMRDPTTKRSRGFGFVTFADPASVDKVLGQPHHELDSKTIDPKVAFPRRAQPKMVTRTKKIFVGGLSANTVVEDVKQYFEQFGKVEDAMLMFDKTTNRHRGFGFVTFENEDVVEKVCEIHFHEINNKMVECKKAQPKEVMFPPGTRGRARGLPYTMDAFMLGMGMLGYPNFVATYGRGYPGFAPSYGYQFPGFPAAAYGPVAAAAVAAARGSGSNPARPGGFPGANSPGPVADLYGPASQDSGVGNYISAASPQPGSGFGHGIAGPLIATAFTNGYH

On to “MSHGHSHGGGGCRCAAEREEPPEQRGLAYGLYLRIDLERLQCLNESREGSGRGVFKPWEERTDRSKFVESDADEELLFNIPFTGNVKLKGIIIMGEDDDSHPSEMRLYKNIPQMSFDDTEREPDQTFSLNRDLTGELEYATKISRFSNVYHLSIHISKNFGADTTKVFYIGLRGEWTELRRHEVTICNYEASANPADHRVHQVTPQTHFIS [PITHD1]”, for which the “solubility change mitosis (log2)” value in data set [1] was -0.108. Moreover, the thermal stability score in data set [2] (setting [5]) was -1.84; in data set [2] (cell cycle stage: mitosis) it was -2.51. The melting temperature in data set [3] (cell cycle stage: G1/S) was 56.2 °C; in data set [3] (cell cycle stage: mitosis), 59.5 °C. Further, the “solubility in G1/S (log2)” value in data set [4] came out at 0.0556.

On to “MSHLPMKLLRKKIEKRNLKLRQRNLKFQGASNLTLSETQNGDVSEETMGSRKVKKSKQKPMNVGLSETQNGGMSQEAVGNIKVTKSPQKSTVLTNGEAAMQSSNSESKKKKKKKRKMVNDAEPDTKKAKTENKGKSEEESAETTKETENNVEKPDNDEDESEVPSLPLGLTGAFEDTSFASLCNLVNENTLKAIKEMGFTNMTEIQHKSIRPLLEGRDLLAAAKTGSGKTLAFLIPAVELIVKLRFMPRNGTGVLILSPTRELAMQTFGVLKELMTHHVHTYGLIMGGSNRSAEAQKLGNGINIIVATPGRLLDHMQNTPGFMYKNLQCLVIDEADRILDVGFEEELKQIIKLLPTRRQTMLFSATQTRKVEDLARISLKKEPLYVGVDDDKANATVDGLEQGYVVCPSEKRFLLLFTFLKKNRKKKLMVFFSSCMSVKYHYELLNYIDLPVLAIHGKQKQNKRTTTFFQFCNADSGTLLCTDVAARGLDIPEVDWIVQYDPPDDPKEYIHRVGRTARGLNGRGHALLILRPEELGFLRYLKQSKVPLSEFDFSWSKISDIQSQLEKLIEKNYFLHKSAQEAYKSYIRAYDSHSLKQIFNVNNLNLPQVALSFGFKVPPFVDLNVNSNEGKQKKRGGGGGFGYQKTKKVEKSKIFKHISKKSSDSRQFSH [DDX18]”, for which, in data set [1], the “solubility change mitosis (log2)” value was 1.1. Also, the thermal stability score in data set [2] (setting [5]) came out at 1.68; in data set [2] (cell cycle stage: mitosis), 1.02. The melting temperature was determined as 51 °C in data set [3] (cell cycle stage: G1/S) and 52 °C in data set [3] (cell cycle stage: mitosis). Further, in data set [4], the “solubility in G1/S (log2)” value was -2.49.

Turning to “MSHVAVENALGLDQQFAGLDLNSSDNQSGGSTASKGRYIPPHLRNREATKGFYDKDSSGWSSSKDKDAYSSFGSRSDSRGKSSFFSDRGSGSRGRFDDRGRSDYDGIGSRGDRSGFGKFERGGNSRWCDKSDEDDWSKPLPPSERLEQELFSGGNTGINFEKYDDIPVEATGNNCPPHIESFSDVEMGEIIMGNIELTRYTRPTPVQKHAIPIIKEKRDLMACAQTGSGKTAAFLLPILSQIYSDGPGEALRAMKENGRYGRRKQYPISLVLAPTRELAVQIYEEARKFSYRSRVRPCVVYGGADIGQQIRDLERGCHLLVATPGRLVDMMERGKIGLDFCKYLVLDEADRMLDMGFEPQIRRIVEQDTMPPKGVRHTMMFSATFPKEIQMLARDFLDEYIFLAVGRVGSTSENITQKVVWVEESDKRSFLLDLLNATGKDSLTLVFVETKKGADSLEDFLYHEGYACTSIHGDRSQRDREEALHQFRSGKSPILVATAVAARGLDISNVKHVINFDLPSDIEEYVHRIGRTGRVGNLGLATSFFNERNINITKDLLDLLVEAKQEVPSWLENMAYEHHYKGSSRGRSKSSRFSGGFGARDYRQSSGASSSSFSSSRASSSRSGGGGHGSSRGFGGGGYGGFYNSDGYGGNYNSQGVDWWGN [DDX3X]”, in data set [1], the “solubility change mitosis (log2)” value was 0.197. Further, the thermal stability score is -0.877 in data set [2] (setting [5]) and 2.82 in data set [2] (cell cycle stage: mitosis). The melting temperature in data set [3] (cell cycle stage: G1/S) and in data set [3] (cell cycle stage: mitosis) was 47.4 °C throughout. Moreover, in data set [4], the “solubility in G1/S (log2)” value is -0.457.

Take MSI2: the “solubility change mitosis (log2)” value in data set [1] was found to be 0.0111. Moreover, the thermal stability score in data set [2] (setting [5]) is -0.0604; in data set [2] (cell cycle stage: mitosis), -1.64. Further, the melting temperature is 51 °C in data set [3] (cell cycle stage: G1/S) and 50.8 °C in data set [3] (cell cycle stage: mitosis). Also, in data set [4], the “solubility in G1/S (log2)” value turned out to be 0.473.

Regarding “MSIFTPTNQIRLTNVAVVRMKRAGKRFEIACYKNKVVGWRSGVEKDLDEVLQTHSVFVNVSKGQVAKKEDLISAFGTDDQTEICKQILTKGEVQVSDKERHTQLEQMFRDIATIVADKCVNPETKRPYTVILIERAMKDIHYSVKTNKSTKQQALEVIKQLKEKMKIERAHMRLRFILPVNEGKKLKEKLKPLIKVIESEDYGQQLEIVCLIDPGCFREIDELIKKETKGKGSLEVLNLKDVEEGDEKFE [SBDS]”, the “solubility change mitosis (log2)” value in data set [1] was -0.0695. Besides, the thermal stability score came out at 1.75 in data set [2] (setting [5]) and 2.97 in data set [2] (cell cycle stage: mitosis). Moreover, the melting temperature in data set [3] (cell cycle stage: G1/S) was found to be 50.4 °C; in data set [3] (cell cycle stage: mitosis), 50.2 °C. Further, the “solubility in G1/S (log2)” value in data set [4] is -0.0131.

As for “MSKPPPKPVKPGQVKVFRALYTFEPRTPDELYFEEGDIIYITDMSDTNWWKGTSKGRTGLIPSNYVAEQAESIDNPLHEAAKRGNLSWLRECLDNRVGVNGLDKAGSTALYWACHGGHKDIVEMLFTQPNIELNQQNKLGDTALHAAAWKGYADIVQLLLAKGARTDLRNIEKKLAFDMATNAACASLLKKKQGTDAVRTLSNAEDYLDDEDSD [OSTF1]”, the “solubility change mitosis (log2)” value in data set [1] is -0.158. Further, the thermal stability score was -0.239 in data set [2] (setting [5]) and 0.339 in data set [2] (cell cycle stage: mitosis). In addition, the melting temperature in data set [3] (cell cycle stage: G1/S) was 49.3 °C; in data set [3] (cell cycle stage: mitosis), 50.7 °C. Moreover, the “solubility in G1/S (log2)” value in data set [4] worked out at 0.545.
